Assay [1] addresses T1, murine TfR expressed by murine neuroblastoma Neuro-2a cells (mouse, UniProt Q62351 1-763).
T1 construct: whole, on cells; also called mTfR (N2a cells)
As to the kind of experiment: competition with C5-Alexa680 (100 nM) on living Neuro-2a cells, 3 hrs at 37 C, flow cytometry; Ki/app, mean ± SD. Here is the method:
(§1) The binding of VHH-Oligo and VHH-hFc-Oligo conjugates to mTfR was evaluated using a competition assay on living cells expressing the receptor of interest, namely murine neuroblastoma Neuro-2a cells (N2a). N2a cells were grown in Dulbecco's Modified Eagle Medium (DMEM) GlutaMAX supplemented with 10% v/v FBS in 5% CO₂ at 37° C. Cells were seeded two days before experiments in 96-well plates at a density of 50.000 cells/well. […] Resuspended cells were transferred in a 96-deepwell plate (V-bottom) containing 1% fetal bovine serum (FBS)/0.02% sodium azide in phosphate-buffered saline (PBS) and then centrifuged for 5 min at 2000 rpm at 4° C. After removing the supernatant, 5 mM EDTA in D-PBS and 4% paraformaldehyde (PFA) (v/v 1:1) were added into wells to fix cells for 15 min at room temperature. PFA was removed by centrifugation (5 min, 3000 rpm, 4° C.) and cells were resuspended with 5 mM EDTA in D-PBS. Then the cellular A680-associated fluorescence signal was quantified using an Attune™ NxT flow cytometer (Thermo Fisher Scientific) equipped with Attune™ NxT v3.1.2. Experimental data (experimental triplicates) were fitted with GraphPad Prism® software using a nonlinear fit to determine the apparent Ki inhibition constants.

The target in assay [2] is T1, murine TfR expressed by murine …. The experiment in a line: competition with the fluorescent reference VHH on Neuro-2a cells as in FIG. 25; Ki/app on mTfR, free VHH. Here is the method: as §1
The target of assay [3] is T2, human transferrin receptor (hTfR) fused to EGFP, on CHO cells (human, UniProt P02786 1-760).
T2 construct: whole, on cells; also called human TfR; CHO-hTfR-EGFP; not shown: EGFP from pEGFP-C1 vector, fused to the N-terminal (intracellular) end of hTfR
T2 sequence (P02786 whole entry, the tested form may be a part): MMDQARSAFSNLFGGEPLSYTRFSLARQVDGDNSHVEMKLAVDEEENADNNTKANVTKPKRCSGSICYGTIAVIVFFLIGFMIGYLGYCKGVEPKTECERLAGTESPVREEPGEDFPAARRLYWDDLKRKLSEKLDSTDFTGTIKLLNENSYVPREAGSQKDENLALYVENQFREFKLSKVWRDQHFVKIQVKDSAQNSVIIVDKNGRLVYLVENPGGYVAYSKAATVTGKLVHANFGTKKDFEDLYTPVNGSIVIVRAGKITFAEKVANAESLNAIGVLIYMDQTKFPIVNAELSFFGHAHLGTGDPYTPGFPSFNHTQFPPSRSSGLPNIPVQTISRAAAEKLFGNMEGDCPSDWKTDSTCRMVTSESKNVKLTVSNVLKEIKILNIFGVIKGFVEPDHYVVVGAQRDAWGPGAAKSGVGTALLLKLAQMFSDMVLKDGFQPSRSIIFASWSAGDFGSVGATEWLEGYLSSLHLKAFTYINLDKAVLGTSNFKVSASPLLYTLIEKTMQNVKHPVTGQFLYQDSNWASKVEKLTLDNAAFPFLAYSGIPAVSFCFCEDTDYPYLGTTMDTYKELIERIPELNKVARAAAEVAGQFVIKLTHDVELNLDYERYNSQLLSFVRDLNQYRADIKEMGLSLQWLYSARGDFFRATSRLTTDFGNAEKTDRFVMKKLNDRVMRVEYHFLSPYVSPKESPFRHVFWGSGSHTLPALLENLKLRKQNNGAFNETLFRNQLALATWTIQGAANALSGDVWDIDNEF
As to the kind of experiment: apparent Kd, flow cytometry, CHO cells. In a few lines: (§2)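 CHO cells expressing TfR-EGFP fusions, blocked in PBS/BSA 2%, then incubated with increasing VHH concentrations for 1 hr at 4° C. Bound VHH detected via anti-6His antibody and Alexa647 secondary, cells PFA-fixed, read by flow cytometry. Apparent Kd from nonlinear fit.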

Assay [4] deals with T3, mouse transferrin receptor (mTfR) fused to EGFP, on CHO cells (mouse, UniProt Q62351 1-763).
T3 construct: whole, on cells; also called mouse TfR; CHO-mTfR-EGFP; not shown: EGFP
T3 sequence (Q62351 whole entry, the tested form may be a part): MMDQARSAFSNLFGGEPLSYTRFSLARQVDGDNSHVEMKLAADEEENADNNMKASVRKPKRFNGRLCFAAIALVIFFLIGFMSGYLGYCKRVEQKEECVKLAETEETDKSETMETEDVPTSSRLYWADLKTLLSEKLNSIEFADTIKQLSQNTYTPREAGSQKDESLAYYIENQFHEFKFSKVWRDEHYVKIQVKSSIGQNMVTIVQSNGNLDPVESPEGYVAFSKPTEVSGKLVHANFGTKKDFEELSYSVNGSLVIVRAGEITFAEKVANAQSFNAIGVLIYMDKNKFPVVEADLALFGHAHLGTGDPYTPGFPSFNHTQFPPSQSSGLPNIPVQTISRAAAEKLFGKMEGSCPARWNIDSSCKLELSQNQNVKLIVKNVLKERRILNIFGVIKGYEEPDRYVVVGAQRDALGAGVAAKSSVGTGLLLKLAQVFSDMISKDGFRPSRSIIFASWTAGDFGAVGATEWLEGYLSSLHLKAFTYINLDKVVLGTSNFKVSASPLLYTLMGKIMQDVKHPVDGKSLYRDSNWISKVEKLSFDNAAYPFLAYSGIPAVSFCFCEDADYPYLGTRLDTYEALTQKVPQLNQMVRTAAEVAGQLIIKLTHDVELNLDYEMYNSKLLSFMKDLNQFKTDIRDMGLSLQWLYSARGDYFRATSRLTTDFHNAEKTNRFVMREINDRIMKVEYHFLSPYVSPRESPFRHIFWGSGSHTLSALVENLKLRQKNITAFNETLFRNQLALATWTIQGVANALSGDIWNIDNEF
The experiment in a line: apparent Kd, flow cytometry, CHO cells. In a few lines: as §2

Assay [5] deals with T4, rhesus monkey transferrin receptor (rhTfR) fused to EGFP, on CHO cells (rhesus monkey).
T4 construct: whole, on cells; also called rhesus monkey TfR
The experiment in a line: apparent Kd, flow cytometry, CHO cells. In a few lines: as §2

The target of assay [6] is T2, human transferrin receptor (hTfR) fused …. As to the kind of experiment: flow cytometry on CHO-hTfR-EGFP cells, 1 hr at 4 C, anti-6His + Alexa647 anti-mouse; ratio to background fluorescence. Here is the method: FIGS. 15A-15H: In vitro gene silencing activity of VHH-siGFPst1 bioconjugates. […] CHO-hTfR-EGFP cells were incubated 1 hr at 4° C. with various concentrations of the indicated compounds. Detection of VHHs was performed using a primary mouse anti-6His (1/1000) and an Alexa647-conjugated anti-mouse secondary antibody (1/400). Measurements of cell-surface signal associated to VHH were performed using flow cytometry. The results are expressed as the ratio of Alexa647-associated fluorescence intensity of test compounds to that of background fluorescence. […] The total fluorescence associated to the EGFP protein was then quantified using flow cytometry and rationalized to that of untreated (control) cells (set at 100%) *** p≤0.001. […] The total fluorescence associated with the EGFP protein was then quantified using flow cytometry and rationalized to that of untreated (control) cells (set at 100%). […] CHO-hTfR-EGFP cells were incubated with the indicated compounds at 1 μM during 120 hrs at 37° C. Data were processed and analyzed as described in (B). *** p≤0.001 vs. untreated cells. […] The total fluorescence associated with the EGFP protein was then quantified using flow cytometry and rationalized to that of untreated (control) cells (set at 100%).

Assay [7] deals with T5, rhesus monkey TfR ectodomain fused to a mouse IgG1 Fc fragment (rhesus monkey, UniProt I0FKY7 89-760).
T5 construct: extracellular domain; not shown: mouse IgG1 Fc fragment
The experiment in a line: SPR, kinetic. In a few lines: (§3)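 TfR–mouse Fc fusions, produced in-house, captured on HC 1500M or CM5 chips either directly or via immobilized anti-mouse IgG. VHHs injected in single-cycle or multiple-cycle kinetic mode on Biacore T200.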

For assay [8], the target named is T6, mouse TfR ectodomain fused to a mouse IgG1 Fc fragment (mouse, UniProt Q62351 89-763).
T6 construct: extracellular domain; not shown: mouse IgG1 Fc fragment
T6 sequence (Q62351 89-763): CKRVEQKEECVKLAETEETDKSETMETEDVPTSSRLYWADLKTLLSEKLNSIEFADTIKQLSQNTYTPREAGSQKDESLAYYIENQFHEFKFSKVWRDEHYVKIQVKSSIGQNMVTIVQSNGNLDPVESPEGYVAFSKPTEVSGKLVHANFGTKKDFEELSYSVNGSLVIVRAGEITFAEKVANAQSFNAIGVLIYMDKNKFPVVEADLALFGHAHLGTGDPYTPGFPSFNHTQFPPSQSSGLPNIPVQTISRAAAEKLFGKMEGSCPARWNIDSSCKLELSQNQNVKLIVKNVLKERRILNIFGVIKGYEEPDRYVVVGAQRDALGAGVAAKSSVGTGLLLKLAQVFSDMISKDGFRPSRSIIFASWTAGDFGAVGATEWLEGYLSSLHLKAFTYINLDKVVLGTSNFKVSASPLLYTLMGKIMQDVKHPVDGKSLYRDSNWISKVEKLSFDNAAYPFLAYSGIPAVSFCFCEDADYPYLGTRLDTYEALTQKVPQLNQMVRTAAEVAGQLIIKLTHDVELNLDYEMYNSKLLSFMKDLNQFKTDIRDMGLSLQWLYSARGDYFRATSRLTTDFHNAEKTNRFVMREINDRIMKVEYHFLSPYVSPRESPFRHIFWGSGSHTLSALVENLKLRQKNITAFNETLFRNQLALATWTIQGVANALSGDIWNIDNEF
As to the kind of experiment: SPR, kinetic. In short, it runs like this: as §3

The target in assay [9] is T7, human TfR ectodomain fused to a mouse IgG1 Fc fragment (human, UniProt P02786 89-760).
T7 construct: extracellular domain; ectodomain fused to the N-terminal end of the Fc, made in-house; not shown: mouse IgG1 Fc fragment
T7 sequence (P02786 89-760): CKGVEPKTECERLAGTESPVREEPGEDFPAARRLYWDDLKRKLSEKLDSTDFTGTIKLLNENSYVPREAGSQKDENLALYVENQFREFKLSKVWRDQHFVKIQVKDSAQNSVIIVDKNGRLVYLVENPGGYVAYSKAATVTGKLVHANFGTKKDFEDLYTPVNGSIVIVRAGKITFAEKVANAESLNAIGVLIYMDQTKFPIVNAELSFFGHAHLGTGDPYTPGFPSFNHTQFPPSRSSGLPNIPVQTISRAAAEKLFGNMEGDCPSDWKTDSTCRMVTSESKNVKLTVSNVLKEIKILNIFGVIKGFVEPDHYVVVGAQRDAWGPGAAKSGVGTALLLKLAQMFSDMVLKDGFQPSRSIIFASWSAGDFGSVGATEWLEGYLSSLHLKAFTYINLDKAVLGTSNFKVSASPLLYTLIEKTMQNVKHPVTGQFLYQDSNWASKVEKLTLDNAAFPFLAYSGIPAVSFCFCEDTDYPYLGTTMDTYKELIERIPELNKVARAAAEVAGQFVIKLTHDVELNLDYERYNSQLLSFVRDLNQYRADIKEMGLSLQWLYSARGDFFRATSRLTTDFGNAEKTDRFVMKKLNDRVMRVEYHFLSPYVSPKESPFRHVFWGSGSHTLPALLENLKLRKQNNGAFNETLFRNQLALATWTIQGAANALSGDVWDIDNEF
As to the kind of experiment: SPR, kinetic. In a few lines: as §3

The target of assay [10] is T6, mouse TfR ectodomain fused to a mouse …. The experiment in a line: SPR, at equilibrium. In short, it runs like this:
as §3

For assay [11], the target named is T3, mouse transferrin receptor (mTfR) fused …. The experiment in a line: cell-based flow cytometry assay on mTfR-expressing cells (as in Example XI).
For assay [12] the target is unchanged. The experiment in a line: cell-based flow cytometry assay on mTfR-expressing cells (as in Example XI); Kd/app.

T1 sequence (Q62351 whole entry): as the sequence (Q62351 whole entry, the tested form may be a part) above

B1: VHH B (B8) (VHH)
VHH: EVQLVESGGGVVQPGGSLRLSCAASGEIFSINFMRWYRQAPGKQREWVAGFTRDGSTNYPDSAKGRFTISRDNAKNTVYLQIDSLKPEDTAVYYCYMLDTWGQGTQVTVSS
B1: the Ki in assay [1] and in [2] was 56.2 nM in each case. For the same molecule, the Kd in [3] was 1.7 nM; in assay [4], 7.5 nM; in [5], 2.2 nM; in [7] it was 0.0951 nM; in [8] it was 27 nM; in [9] it was 0.0559 nM. The molecule further registered a Kd in [10] of 37.5 nM. For the same molecule, the “EC50 (read off the curve)” value in assay [6] is approximately 4 nM. The values for the koff in assay [7], in assay [8] and in assay [9] were 9.54e-05 s⁻¹, 0.0243 s⁻¹ and 3.06e-05 s⁻¹, respectively. In addition, the figures for the kon in assay [7], in assay [8] and in assay [9] were 1e+06 M⁻¹ s⁻¹, 1.23e+06 M⁻¹ s⁻¹ and 677000 M⁻¹ s⁻¹, respectively.

B2: B8-MALAT1-ASO (VHH, not shown: small tags and cut ends)
VHH: EVQLVESGGGVVQPGGSLRLSCAASGEIFSINFMRWYRQAPGKQREWVAGFTRDGSTNYPDSAKGRFTISRDNAKNTVYLQIDSLKPEDTAVYYCYMLDTWGQGTQVTVSS
modifications: MALAT1 gapmer antisense oligonucleotide linked to the VHH
notes: also called VHH-MALAT1-ASO wherein VHH is B8
In assay [1], B2 returned a Ki of 60.9 nM.

B3: 13C3-HC-C5h9 (antibody)
heavy: QVQLQQSGPELVRPGVSVKISCKGSGYTFTDYAMHWVKQSHAKSLEWIGVISTKYGKTNYNQKFKGKATMTVDKSSSTAYMELARLTSEDSAIYYCARGDDGYSWGQGTSVTVSSAKTTPPSVYPLAPGSAAQTNSMVTLGCLVKGYFPEPVTVTWNSGSLSSGVHTFPAVLQSDLYTLSSSVTVPSSTWPSETVTCNVAHPASSTKVDKKIVPRDCGCKPCICTVPEVSSVFIFPPKPKDVLTITLTPKVTCVVVDISKDDPEVQFSWFVDDVEVHTAQTQPREEQFNSTFRSVSELPIMHQDWLNGKEFKCRVNSAAFPAPIEKTISKTKGRPKAPQVYTIPPPKEQMAKDKVSLTCMITDFFPEDITVEWQWNGQPAENYKNTQPIMDTDGSYFVYSKLNVQKSNWEAGNTFTCSVLHEGLHNHHTEKSLSHSPGGGGGMAEVQLVESGGGVVQPGGSLRLSCAASGTDFSINFIRWYRQAPGKGLEFVAGFTATGNTNYADSVKGRFTISRDNAKNTLYLQMNSLRPEDTAVYYCYMLDKWGQGTQVTVSSAAA
light: DVVMTQTPLSLPVSLGDQASISCRSGQSLVHSNGNTYLHWYLQKPGQSPKLLIYTVSNRFSGVPDRFSGSGSGSDFTLKISRVEAEDLGVYFCSQNTFVPWTFGGGTKLEIKRADAAPTVSIFPPSSEQLTSGGASVVCFLNNFYPKDINVKWKIDGSERQNGVLNSWTDQDSKDSTYSMSSTLTLTKDEYERHNSYTCEATHKTSTSPIVKSFNRNEC
On to B3, for which, in assay [11], the Bmax came to 531 RFI. This molecule returned a Kd in assay [12] of 15.8 nM.

B4: 13C3-HC-C5h20 (antibody)
heavy: QVQLQQSGPELVRPGVSVKISCKGSGYTFTDYAMHWVKQSHAKSLEWIGVISTKYGKTNYNQKFKGKATMTVDKSSSTAYMELARLTSEDSAIYYCARGDDGYSWGQGTSVTVSSAKTTPPSVYPLAPGSAAQTNSMVTLGCLVKGYFPEPVTVTWNSGSLSSGVHTFPAVLQSDLYTLSSSVTVPSSTWPSETVTCNVAHPASSTKVDKKIVPRDCGCKPCICTVPEVSSVFIFPPKPKDVLTITLTPKVTCVVVDISKDDPEVQFSWFVDDVEVHTAQTQPREEQFNSTFRSVSELPIMHQDWLNGKEFKCRVNSAAFPAPIEKTISKTKGRPKAPQVYTIPPPKEQMAKDKVSLTCMITDFFPEDITVEWQWNGQPAENYKNTQPIMDTDGSYFVYSKLNVQKSNWEAGNTFTCSVLHEGLHNHHTEKSLSHSPGGGGGMAEVQLVESGGGVVQPGGSLRLSCAASGTDFSINFIRWYRQAPGKGLEFVAGFTATGNTNYADSVKGRFTISRDNAKNAVYLQMNSLRPEDTAVYYCYMLDKWGQGTQVTVSSAAA
light: DVVMTQTPLSLPVSLGDQASISCRSGQSLVHSNGNTYLHWYLQKPGQSPKLLIYTVSNRFSGVPDRFSGSGSGSDFTLKISRVEAEDLGVYFCSQNTFVPWTFGGGTKLEIKRADAAPTVSIFPPSSEQLTSGGASVVCFLNNFYPKDINVKWKIDGSERQNGVLNSWTDQDSKDSTYSMSSTLTLTKDEYERHNSYTCEATHKTSTSPIVKSFNRNEC
notes: homodimeric fusion, bivalent for TfR
Regarding B4, the Bmax in assay [11] stood at 1470 RFI. The molecule also came in with a Kd in assay [12] of 22.3 nM.

B5: 13C3-HC-C5h24 (antibody)
heavy: QVQLQQSGPELVRPGVSVKISCKGSGYTFTDYAMHWVKQSHAKSLEWIGVISTKYGKTNYNQKFKGKATMTVDKSSSTAYMELARLTSEDSAIYYCARGDDGYSWGQGTSVTVSSAKTTPPSVYPLAPGSAAQTNSMVTLGCLVKGYFPEPVTVTWNSGSLSSGVHTFPAVLQSDLYTLSSSVTVPSSTWPSETVTCNVAHPASSTKVDKKIVPRDCGCKPCICTVPEVSSVFIFPPKPKDVLTITLTPKVTCVVVDISKDDPEVQFSWFVDDVEVHTAQTQPREEQFNSTFRSVSELPIMHQDWLNGKEFKCRVNSAAFPAPIEKTISKTKGRPKAPQVYTIPPPKEQMAKDKVSLTCMITDFFPEDITVEWQWNGQPAENYKNTQPIMDTDGSYFVYSKLNVQKSNWEAGNTFTCSVLHEGLHNHHTEKSLSHSPGGGGGMAEVQLVESGGGVVQPGGSLRLSCAASGTDFSINFIRWYRQAPGKGLEFVAGFTATGNTNYADSMKGRFTISRDNAKNTLYLQMNSLRPEDTAVYYCYMLDKWGQGTQVTVSSAAA
light: DVVMTQTPLSLPVSLGDQASISCRSGQSLVHSNGNTYLHWYLQKPGQSPKLLIYTVSNRFSGVPDRFSGSGSGSDFTLKISRVEAEDLGVYFCSQNTFVPWTFGGGTKLEIKRADAAPTVSIFPPSSEQLTSGGASVVCFLNNFYPKDINVKWKIDGSERQNGVLNSWTDQDSKDSTYSMSSTLTLTKDEYERHNSYTCEATHKTSTSPIVKSFNRNEC
Consider B5, for which the Bmax in assay [11] amounted to 781 RFI. This molecule showed a Kd in [12] of 20.2 nM.

These data come from patent US20230414780A1 (VECT HORUS, published 2023).
